This note sets out measurements from publication PMC8786603.

What all share (assay): cryo-EM structure
Assay [1] has as its target SARS-CoV-2 Delta prefusion-stabilized soluble trimeric spike ectodomain (S-trimer) (SARS-CoV-2) (UniProt P0DTC2).
For assay [2], the target named is SARS-CoV-2 Omicron prefusion-stabilized soluble trimeric spike ectodomain (S-trimer) (SARS-CoV-2) (UniProt P0DTC2).
Assay [3] has the same target. The source holds these as a separate data set.

Read-outs that look alike come from different tables or passages of the source.

As to “SARS-CoV-2 Delta prefusion-stabilized soluble trimeric spike ectodomain (S-trimer) (from UniProt P0DTC2 14-1208) (natural protein)”, the stoichiometry N in assay [1] is 3 protomers.
Turning to “SARS-CoV-2 Omicron prefusion-stabilized soluble trimeric spike ectodomain (S-trimer) (from UniProt P0DTC2 14-1208) (natural protein)”, the stoichiometry N in assay [2] and in assay [3] was 3 protomers in each case.
